Results reported in article doi:10.1101/2020.11.18.388926.

Target: T1, Fur (Pseudomonas aeruginosa, UniProt Q03456 1-134)
T1 sequence: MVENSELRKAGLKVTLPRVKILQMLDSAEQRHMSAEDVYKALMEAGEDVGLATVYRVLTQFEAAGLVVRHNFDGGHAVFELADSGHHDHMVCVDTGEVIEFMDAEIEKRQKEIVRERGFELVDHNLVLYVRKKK
Experiment: fluorescence anisotropy

B1: prrF1-30 (dsDNA)
DNA 1: GACATGGAAATGAGAATCATTATTATGTC
DNA 2: GACATAATAATGATTCTCATTTCCATGTC
Q: How did the Kd turn out when B1 was run?
A: 50 ± 10 nM
